Source: US20230174623A1

Target: collagen within the matrix fraction of excised B16F10 tumors
Experiment: depletion of AF647-LAIR fluorescence from solution by the B16F10 tumor matrix fraction, at steady state

Row | uptake into the tumor matrix (LAIR binding sites of a tumor) [nmol] | decrease in solution concentration (LAIR depleted from the bath) [%] | Substance
1 | 0.2 |  | AF647-labeled LAIR (receptor)
2 |  | 20 | AF647-labeled LAIR
